Measurements as given in PMC11399405.

How the values were obtained:
SPD_1777 = SPD_1777 (Streptococcus pneumoniae D39, UniProt A0A0H2ZNW3 1-317); test: EMSA
SPD_1558 = SPD_1558 (Streptococcus pneumoniae D39, UniProt A0A0H2ZMV6 1-103); test: EMSA

B1: IGR1729/1728 and flanking RNA (55 nt) (ssRNA)
RNA: GCUAGUGCAGAUGCUCCAGUUAAAAAAGAGUAGGAGGUAGAGGAAAUGUCUCAAU
- binding result (SPD_1777): binds
- binding result (SPD_1558): binds
